Ends that are not written are not given here. * marks the point of attachment. Biotin = O=C1N[C@H]2[C@H](CS[C@H]2CCCCC(=O)*)N1

Experimental findings from US20200239586A1 (LA TROBE UNIVERSITY, published 2020) are described below.

Assay [1] deals with T1, His tagged hFn14 extracellular region mutant R56P (human, UniProt Q9NP84 28-77).
T1 construct: also called R56P mutant; not shown: (His)6 tag
The assay is described as follows: ELISA with purified His-tagged hFn14 R56P; x axis 'Log (c)' without unit, µg/ml by the legend. In general terms: In an ELISA, binding on a coated surface is turned into a signal by an enzyme label.

In assay [2] the target is T2, synthetic peptide hFn14 sub-domain 3 (human, cysteine pairing not given here).
T2 construct: also called sub-domain 3 peptide
T2 peptide: ASCRARPHSDFCLGK(Biotin)
The experiment in a line: ELISA on biotinylated sub-domain 3 peptide, mAb at 0.2 ug/ml. As to the method:
An additional lysine residue was added to the C-terminus in order to attach a biotin moiety and to enable the peptides to bind to neutravidin coated plates (Pre-blocked; Pierce). For these experiments, a control peptide with a biotin at the C-terminus was used as a negative control and isotype control antibodies were also used.
The ELISA was performed essentially according to the manufacturer's recommended protocol (Pierce). Briefly, peptide was coated onto wells (in duplicate) at 1-10 μg/ml for 2 hours at room temperature. Wells were washed in PBS/0.05% Tween 20/0.1% BSA 3 times and dilutions of each antibody were added in wash buffer for 1 hour with gentle agitation. After another three washes anti-mouse HRP-conjugated to horse radish peroxidase (HRP; Chemicon) was added at 1/1000 dilution for 1 hour shaking. Finally, after 4 further washes the plate was developed using TMB (3,3′,5,5′-tetramethylbenzidine) substrate (Pierce), and the reaction was stopped using 2M H2SO4 solution. Optical density at 450 nm was quantified using a Spectromax absorbance spectrophotometer.
The reactivity of CRCBT-06-001 CRCBT-06-002, CRCBT-06-003, CRCBT-06-004, CRCBT-06-005, CRCBT-06-006 and CRCBT-06-007 with sub-domain 3 was lower than for sub-domain 2, indicating this region may be a partial epitope for these antibodies. However, the differences in binding to this region could reveal subtle variations in the contact regions of the antibodies with hFn14. The order of binding from strongest to weakest was CRCBT-06-005, CRCBT-06-002, CRCBT-06-001, CRCBT-06-006, CRCBT-06-007 and ITEM-1. The relative binding of each antibody to sub-domain 3 at a single point in the linear region of the curves was measured at 0.2 µg/ml (FIG. 21C). […] This could indicate the epitope of ITEM-1 may differ slightly to the CRCBT antibodies based on weaker interaction with surface exposed residues in sub-domain 3.

For assay [3], the target named is phage expressed hFn14 mutant L46A (human, UniProt Q9NP84 28-77). The experiment in a line: phage ELISA (Method 2): antibody coated on the plate, 10-fold dilutions of phage displaying hFn14 L46A; biotin anti-M13 antibody, streptavidin-HRP, TMB, OD 450 nm; x axis = dilution of phage. The source says:
(§1) ELISAs showing the reactivity of mutant hFn14 phage constructs with the anti-Fn14 monoclonal antibodies CRCBT-06-001, CRCBT-06-002, CRCBT-06-004 compared to ITEM-1 and ITEM-4. Binding was detected using Biotin-conjugated anti-M13-phage monoclonal antibody followed by HRP-conjugated Streptavidin and TMB substrate. Optical density at 450 nm was quantified using a Spectramax spectrophotometer. Error bars for each dilution represent the standard deviation of duplicate assays. FIG. 28A L46A, FIG. 28B D51A and FIG. 28C D62A. In all cases error bars represent the standard deviation. X axis=dilution of phage. Methods according to Epitope mapping using phage expressed Fn14—Method 2.
(§2) The wells of Maxisorp immunoplates (Nunc) were coated overnight at 4° C. with the target monoclonal antibodies or recombinant Tweak-Fc at a concentration of 1.5 μg/ml in PBS. mAb 5G8 was used as a negative control for ELISA plates coated with tested antibodies. […] 10-fold serial dilutions of phage were made using PBS solution and phage dilutions were added to the coated, blocked ELISA plates for 1 hour, shaking at room temperature. […]
(§3) Method A: HRP-conjugated anti-M13-phage antibody (GE Healthcare) at a 1/5000 dilution in PBS was then added to the wells of the ELISA plates for 1 hour, shaking at room temperature. […] Optical density at 450 nm was quantified using a Spectramax absorbance spectrophotometer.

Assay [4] deals with phage expressed hFn14 mutant R58A (human, UniProt Q9NP84 28-77). The experiment in a line: phage ELISA (Method 2), antibody on plate, phage dilution 1/X on the x axis.
Text: as §1, with “FIG. 26 is a graphical representation” for “ELISAs”, “showing results of an ELISA testing” for “showing”, “construct comprising a R58A mutation” for “constructs”, “assays.” for “assays. FIG. 28A L46A, FIG. 28B D51A and FIG. 28C D62A. In all cases error bars represent the standard deviation.”, “2” for “2.”
as §2, §3

Assay [5] concerns the target T3, synthetic peptide Sub-domain 2 Cys 4&5 ΔS (human, not fully specified; biotin on the added C-terminal lysine).
T3 construct: also called sub-domain 2 cys4&5ΔS mutant
T3 peptide: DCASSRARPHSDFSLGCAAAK
The experiment in a line: peptide ELISA: biotinylated synthetic peptide on neutravidin plate, antibody titrated (legend: 1-0.0001 µg/ml; axis 'Log (c)'), anti-mouse HRP, TMB, OD 450 nm.

Chain of phage expressed hFn14 mutant L46A (Q9NP84 28-77 L46A): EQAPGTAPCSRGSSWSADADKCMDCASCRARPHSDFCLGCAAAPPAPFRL

B1: CRCBT-06-002 (antibody, IgG1, V domains shown)
VH: EVKLQQSGGGLVQPGGSMKLSCVASGFTFSYYWMNWVRQSPEQGLEWIAEIRLQSNDYPTHYAESVKGRFTISRDDSKNSVYLQMNNLRPEDTGIYYCACRYADYFDHWGQGTTLTVSS
VL: DTVLTQSPASLVVSLGQRATISCRASQSVSTSDYSYIHWYQQKPGQPPKFLIKYASNRDSGVPARFSGSGSGTDFTLNIHPVEEDDTAIYYCQHSWEIPPTFGAGTKLELQR
As for B1, the binding result in assay [1], in assay [3], in assay [4] and in assay [5] was “binds” throughout. Also, the “% decrease in binding compared with CRCBT-06-005” value in assay [2] turned out to be 43%.

B2: CRCBT-06-001 (antibody, IgG2b, V domains shown)
VH: QVQLQQSGGGLVQPGGSMKLSCIASGFTFSSYWMSWVRQSPEKGLEWVAEIRSKSDNYATHYAESVKGKFTISRDDSKSRFFLQMNNLRAEDTGIYYCSSTYADYFHYWGQGTDLTVSS
VL: DIVMTQTPASLAVSLGQRATISCRASQSVSTSTYSYMHWYQQKPGQPPKLLIKYASSLESGVPARFSGSGSGTDFTLNIHPVEEDDTATYYCQHSWEIPYTFGGGTKLEIKR
Take B2: the binding result in assay [1], in assay [3], in assay [4] and in assay [5] was “binds” throughout. The “% decrease in binding compared with CRCBT-06-005” value in assay [2] amounted to 60%.
